# B1: Pistol ribozyme (parent)
# chain: GGGUCGUUGUUCCAUAAUCGCGUGGAUAUGGCACGCAAGUUUCUACCGGGCACCGUAAAUGUCCGACUGGAGCCGUUCGGGCGGCUAUAAACAGACCUCAGGCCCGAAGCGUGGCGGCACCUGCCGCCGGUGGUAAAAAAGAUCGGAAGAGCACACGUCU
# Variants of: B1
# Assay: aptazyme ON/OFF ratio, guanine; higher = stronger switching; co-transcriptional cleavage with and without guanine
row,Variant,aptazyme ON/OFF ratio
1,GGGUCGGUCCACAAUAAUCGCGUGGAUAUGGCACGCAAGUUUCUACCGGGCACCGUAAAUGUCCGACUGGAGCCGUUCGGGCGGCUAUAAACAGACCUCAGGCCCGAAGCGUGGCGGCACCUGCCGCCGGUGGUAAAAAAGAUCGGAAGAGCACACGUCU [U7G G9C U10C U11A C13A],1.24
2,GGGUCGGUCCUUAAUAAUCGCGUGGAUAUGGCACGCAAGUUUCUACCGGGCACCGUAAAUGUCCGACUGGAGCCGUUCGGGCGGCUAUAAACAGACCUCAGGCCCGAAGCGUGGCGGCACCUGCCGCCGGUGGUAAAAAAGAUCGGAAGAGCACACGUCU [U7G G9C U10C C12U C13A],1.21
3,GGGUCGGUCCUUUAUAAUCGCGUGGAUAUGGCACGCAAGUUUCUACCGGGCACCGUAAAUGUCCGACUGGAGCCGUUCGGGCGGCUAUAAACAGACCUCAGGCCCGAAGCGUGGCGGCACCUGCCGCCGGUGGUAAAAAAGAUCGGAAGAGCACACGUCU [U7G G9C U10C C12U C13U],1.34
4,GGGUCGGUCCUUGAUAAUCGCGUGGAUAUGGCACGCAAGUUUCUACCGGGCACCGUAAAUGUCCGACUGGAGCCGUUCGGGCGGCUAUAAACAGACCUCAGGCCCGAAGCGUGGCGGCACCUGCCGCCGGUGGUAAAAAAGAUCGGAAGAGCACACGUCU [U7G G9C U10C C12U C13G],1.21
5,GGGUCGGUCCAUCAUAAUCGCGUGGAUAUGGCACGCAAGUUUCUACCGGGCACCGUAAAUGUCCGACUGGAGCCGUUCGGGCGGCUAUAAACAGACCUCAGGCCCGAAGCGUGGCGGCACCUGCCGCCGGUGGUAAAAAAGAUCGGAAGAGCACACGUCU [U7G G9C U10C U11A C12U],1.4
6,GGGUCGGUCCAGCAUAAUCGCGUGGAUAUGGCACGCAAGUUUCUACCGGGCACCGUAAAUGUCCGACUGGAGCCGUUCGGGCGGCUAUAAACAGACCUCAGGCCCGAAGCGUGGCGGCACCUGCCGCCGGUGGUAAAAAAGAUCGGAAGAGCACACGUCU [U7G G9C U10C U11A C12G],1.31
7,GGGUCGGUCCAACAUAAUCGCGUGGAUAUGGCACGCAAGUUUCUACCGGGCACCGUAAAUGUCCGACUGGAGCCGUUCGGGCGGCUAUAAACAGACCUCAGGCCCGAAGCGUGGCGGCACCUGCCGCCGGUGGUAAAAAAGAUCGGAAGAGCACACGUCU [U7G G9C U10C U11A C12A],1.46
8,GGGUCGGUCCUGGAUAAUCGCGUGGAUAUGGCACGCAAGUUUCUACCGGGCACCGUAAAUGUCCGACUGGAGCCGUUCGGGCGGCUAUAAACAGACCUCAGGCCCGAAGCGUGGCGGCACCUGCCGCCGGUGGUAAAAAAGAUCGGAAGAGCACACGUCU [U7G G9C U10C C12G C13G],1.09
9,GGGUCGGUCCUGUAUAAUCGCGUGGAUAUGGCACGCAAGUUUCUACCGGGCACCGUAAAUGUCCGACUGGAGCCGUUCGGGCGGCUAUAAACAGACCUCAGGCCCGAAGCGUGGCGGCACCUGCCGCCGGUGGUAAAAAAGAUCGGAAGAGCACACGUCU [U7G G9C U10C C12G C13U],1.23
10,GGGUCGGUCCUGAAUAAUCGCGUGGAUAUGGCACGCAAGUUUCUACCGGGCACCGUAAAUGUCCGACUGGAGCCGUUCGGGCGGCUAUAAACAGACCUCAGGCCCGAAGCGUGGCGGCACCUGCCGCCGGUGGUAAAAAAGAUCGGAAGAGCACACGUCU [U7G G9C U10C C12G C13A],1.31
11,GGGUCGGUCCUCAAUAAUCGCGUGGAUAUGGCACGCAAGUUUCUACCGGGCACCGUAAAUGUCCGACUGGAGCCGUUCGGGCGGCUAUAAACAGACCUCAGGCCCGAAGCGUGGCGGCACCUGCCGCCGGUGGUAAAAAAGAUCGGAAGAGCACACGUCU [U7G G9C U10C C13A],1.14
12,GGGUCGGUCCUCGAUAAUCGCGUGGAUAUGGCACGCAAGUUUCUACCGGGCACCGUAAAUGUCCGACUGGAGCCGUUCGGGCGGCUAUAAACAGACCUCAGGCCCGAAGCGUGGCGGCACCUGCCGCCGGUGGUAAAAAAGAUCGGAAGAGCACACGUCU [U7G G9C U10C C13G],1.09
13,GGGUCGGUCCUCUAUAAUCGCGUGGAUAUGGCACGCAAGUUUCUACCGGGCACCGUAAAUGUCCGACUGGAGCCGUUCGGGCGGCUAUAAACAGACCUCAGGCCCGAAGCGUGGCGGCACCUGCCGCCGGUGGUAAAAAAGAUCGGAAGAGCACACGUCU [U7G G9C U10C C13U],1.47
14,GGGUCGGUCCAUUAUAAUCGCGUGGAUAUGGCACGCAAGUUUCUACCGGGCACCGUAAAUGUCCGACUGGAGCCGUUCGGGCGGCUAUAAACAGACCUCAGGCCCGAAGCGUGGCGGCACCUGCCGCCGGUGGUAAAAAAGAUCGGAAGAGCACACGUCU [U7G G9C U10C U11A C12U C13U],1.32
15,GGGUCGGUCCAUAAUAAUCGCGUGGAUAUGGCACGCAAGUUUCUACCGGGCACCGUAAAUGUCCGACUGGAGCCGUUCGGGCGGCUAUAAACAGACCUCAGGCCCGAAGCGUGGCGGCACCUGCCGCCGGUGGUAAAAAAGAUCGGAAGAGCACACGUCU [U7G G9C U10C U11A C12U C13A],1.18
16,GGGUCGGUCCAUGAUAAUCGCGUGGAUAUGGCACGCAAGUUUCUACCGGGCACCGUAAAUGUCCGACUGGAGCCGUUCGGGCGGCUAUAAACAGACCUCAGGCCCGAAGCGUGGCGGCACCUGCCGCCGGUGGUAAAAAAGAUCGGAAGAGCACACGUCU [U7G G9C U10C U11A C12U C13G],1.21
17,GGGUCGGUCCUCCAUAAUCGCGUGGAUAUGGCACGCAAGUUUCUACCGGGCACCGUAAAUGUCCGACUGGAGCCGUUCGGGCGGCUAUAAACAGACCUCAGGCCCGAAGCGUGGCGGCACCUGCCGCCGGUGGUAAAAAAGAUCGGAAGAGCACACGUCU [U7G G9C U10C],2.77
18,GGGUCGGUCCUUCAUAAUCGCGUGGAUAUGGCACGCAAGUUUCUACCGGGCACCGUAAAUGUCCGACUGGAGCCGUUCGGGCGGCUAUAAACAGACCUCAGGCCCGAAGCGUGGCGGCACCUGCCGCCGGUGGUAAAAAAGAUCGGAAGAGCACACGUCU [U7G G9C U10C C12U],1.7

row,Variant,aptazyme ON/OFF ratio
1,GGGUCGGUCCUACAUAAUCGCGUGGAUAUGGCACGCAAGUUUCUACCGGGCACCGUAAAUGUCCGACUGGAGCCGUUCGGGCGGCUAUAAACAGACCUCAGGCCCGAAGCGUGGCGGCACCUGCCGCCGGUGGUAAAAAAGAUCGGAAGAGCACACGUCU [U7G G9C U10C C12A],1.5
2,GGGUCGGUCCUGCAUAAUCGCGUGGAUAUGGCACGCAAGUUUCUACCGGGCACCGUAAAUGUCCGACUGGAGCCGUUCGGGCGGCUAUAAACAGACCUCAGGCCCGAAGCGUGGCGGCACCUGCCGCCGGUGGUAAAAAAGAUCGGAAGAGCACACGUCU [U7G G9C U10C C12G],1.29
3,GGGUCGGUCCUAUAUAAUCGCGUGGAUAUGGCACGCAAGUUUCUACCGGGCACCGUAAAUGUCCGACUGGAGCCGUUCGGGCGGCUAUAAACAGACCUCAGGCCCGAAGCGUGGCGGCACCUGCCGCCGGUGGUAAAAAAGAUCGGAAGAGCACACGUCU [U7G G9C U10C C12A C13U],1.36
4,GGGUCGGUCCUAGAUAAUCGCGUGGAUAUGGCACGCAAGUUUCUACCGGGCACCGUAAAUGUCCGACUGGAGCCGUUCGGGCGGCUAUAAACAGACCUCAGGCCCGAAGCGUGGCGGCACCUGCCGCCGGUGGUAAAAAAGAUCGGAAGAGCACACGUCU [U7G G9C U10C C12A C13G],1.16
5,GGGUCGGUCCUAAAUAAUCGCGUGGAUAUGGCACGCAAGUUUCUACCGGGCACCGUAAAUGUCCGACUGGAGCCGUUCGGGCGGCUAUAAACAGACCUCAGGCCCGAAGCGUGGCGGCACCUGCCGCCGGUGGUAAAAAAGAUCGGAAGAGCACACGUCU [U7G G9C U10C C12A C13A],1.16
6,GGGUCGGUCCACCAUAAUCGCGUGGAUAUGGCACGCAAGUUUCUACCGGGCACCGUAAAUGUCCGACUGGAGCCGUUCGGGCGGCUAUAAACAGACCUCAGGCCCGAAGCGUGGCGGCACCUGCCGCCGGUGGUAAAAAAGAUCGGAAGAGCACACGUCU [U7G G9C U10C U11A],1.65
7,GGGUCGGUCAGUAAUAAUCGCGUGGAUAUGGCACGCAAGUUUCUACCGGGCACCGUAAAUGUCCGACUGGAGCCGUUCGGGCGGCUAUAAACAGACCUCAGGCCCGAAGCGUGGCGGCACCUGCCGCCGGUGGUAAAAAAGAUCGGAAGAGCACACGUCU [U7G G9C U10A U11G C12U C13A],1.18
8,GGGUCGGUCAGUGAUAAUCGCGUGGAUAUGGCACGCAAGUUUCUACCGGGCACCGUAAAUGUCCGACUGGAGCCGUUCGGGCGGCUAUAAACAGACCUCAGGCCCGAAGCGUGGCGGCACCUGCCGCCGGUGGUAAAAAAGAUCGGAAGAGCACACGUCU [U7G G9C U10A U11G C12U C13G],1.2
9,GGGUCGGUCAGUUAUAAUCGCGUGGAUAUGGCACGCAAGUUUCUACCGGGCACCGUAAAUGUCCGACUGGAGCCGUUCGGGCGGCUAUAAACAGACCUCAGGCCCGAAGCGUGGCGGCACCUGCCGCCGGUGGUAAAAAAGAUCGGAAGAGCACACGUCU [U7G G9C U10A U11G C12U C13U],1.26
10,GGGUCGGUCCAAUAUAAUCGCGUGGAUAUGGCACGCAAGUUUCUACCGGGCACCGUAAAUGUCCGACUGGAGCCGUUCGGGCGGCUAUAAACAGACCUCAGGCCCGAAGCGUGGCGGCACCUGCCGCCGGUGGUAAAAAAGAUCGGAAGAGCACACGUCU [U7G G9C U10C U11A C12A C13U],1.25
11,GGGUCGGUCCAAGAUAAUCGCGUGGAUAUGGCACGCAAGUUUCUACCGGGCACCGUAAAUGUCCGACUGGAGCCGUUCGGGCGGCUAUAAACAGACCUCAGGCCCGAAGCGUGGCGGCACCUGCCGCCGGUGGUAAAAAAGAUCGGAAGAGCACACGUCU [U7G G9C U10C U11A C12A C13G],1.15
12,GGGUCGGUCCAAAAUAAUCGCGUGGAUAUGGCACGCAAGUUUCUACCGGGCACCGUAAAUGUCCGACUGGAGCCGUUCGGGCGGCUAUAAACAGACCUCAGGCCCGAAGCGUGGCGGCACCUGCCGCCGGUGGUAAAAAAGAUCGGAAGAGCACACGUCU [U7G G9C U10C U11A C12A C13A],1.21
13,GGGUCGGUCAGCAAUAAUCGCGUGGAUAUGGCACGCAAGUUUCUACCGGGCACCGUAAAUGUCCGACUGGAGCCGUUCGGGCGGCUAUAAACAGACCUCAGGCCCGAAGCGUGGCGGCACCUGCCGCCGGUGGUAAAAAAGAUCGGAAGAGCACACGUCU [U7G G9C U10A U11G C13A],1.13
14,GGGUCGGUCAGCGAUAAUCGCGUGGAUAUGGCACGCAAGUUUCUACCGGGCACCGUAAAUGUCCGACUGGAGCCGUUCGGGCGGCUAUAAACAGACCUCAGGCCCGAAGCGUGGCGGCACCUGCCGCCGGUGGUAAAAAAGAUCGGAAGAGCACACGUCU [U7G G9C U10A U11G C13G],1.14
15,GGGUCGGUCAGCUAUAAUCGCGUGGAUAUGGCACGCAAGUUUCUACCGGGCACCGUAAAUGUCCGACUGGAGCCGUUCGGGCGGCUAUAAACAGACCUCAGGCCCGAAGCGUGGCGGCACCUGCCGCCGGUGGUAAAAAAGAUCGGAAGAGCACACGUCU [U7G G9C U10A U11G C13U],1.4
16,GGGUCGGUCCAGUAUAAUCGCGUGGAUAUGGCACGCAAGUUUCUACCGGGCACCGUAAAUGUCCGACUGGAGCCGUUCGGGCGGCUAUAAACAGACCUCAGGCCCGAAGCGUGGCGGCACCUGCCGCCGGUGGUAAAAAAGAUCGGAAGAGCACACGUCU [U7G G9C U10C U11A C12G C13U],1.31
17,GGGUCGGUCCAGGAUAAUCGCGUGGAUAUGGCACGCAAGUUUCUACCGGGCACCGUAAAUGUCCGACUGGAGCCGUUCGGGCGGCUAUAAACAGACCUCAGGCCCGAAGCGUGGCGGCACCUGCCGCCGGUGGUAAAAAAGAUCGGAAGAGCACACGUCU [U7G G9C U10C U11A C12G C13G],1.2
18,GGGUCGGUCCAGAAUAAUCGCGUGGAUAUGGCACGCAAGUUUCUACCGGGCACCGUAAAUGUCCGACUGGAGCCGUUCGGGCGGCUAUAAACAGACCUCAGGCCCGAAGCGUGGCGGCACCUGCCGCCGGUGGUAAAAAAGAUCGGAAGAGCACACGUCU [U7G G9C U10C U11A C12G C13A],1.13

# Reference: the RNAGym collection of RNA variant scans (doi:10.1021/acssynbio.7b00057)
